T1: α-fructosyl hexapeptide (α-fructosyl-valyl-histidyl-leucyl-threonyl-propyl-glutamic acid)
T1 chain: VHLTPE

T2: α-fructosyl valyl histidine
T2 chain: VH


What was measured:
[1] = target: T1, α-fructosyl hexapeptide …
[2] = target: T2, α-fructosyl valyl histidine

| Protein | Specific activity (U/mg), 1 mM αF6P [1] [U/mg] | specific activity on αF6P, fold over FAOAo2 (Present Invention 25/Comparative Example 2) [1] | ΔA at 751 nm (hydrogen peroxide generated upon oxidation of αF6P) against αF6P concentration [1] | αF6P oxidation activity ratio, relative to CFP-T7-H28 = 100 as the table shows (relative (CFP-T7-H28 = 100)) [1] | Specific activity (U/mg), 1 mM αFVH [2] [U/mg] | specific activity on αF6P, fold over PnFX (Present Invention 26/Comparative Example 3) [1] |
| --- | --- | --- | --- | --- | --- | --- |
| CFP-T7-H35 (protein) MTSNRADTRVIVVGGGGTIGSSTALHLVRSGYAPANITVLDTFEIPSAQSAGHDLNKIMGIDHRNKVDLQMSLEARQMWKEDELFQPFFHNTGRMDCEHTPKGIEKLKKLYQKLHDAGAGLEKTHAWLDNEDEILSKMPLLQRDQIQGWKAIWSQDGGWLAAAKAINAIGQFLKERGVKFGFGGAGSFKQPLFDDEGTTCIGVETADGTKYYADKVVLAAGAWSPTLVDLEDQCCSKAWVYAHIQLTPEEAAEYKGVPVVYNGEFGFFFEPDEFGVIKVCDEFPGFSRFKEHQPYGAPSPKRISVPRSHAKHPTDTYPDASEVSIKKAIATFLPRFQDKELFNRALCWCTDTADSALLMCEHPKWKNFILATGDSGHSFKILPNVGKYVVELIEGRLPEEMAYQWRWRPGGDALKSRRAAPPKDLADMPGWKHDPKL | 4.27 | 2 times (Present Invention 26/Comparative Example 3) to 1,940 times (Present Invention 25/Comparative Example 2) greater | a favorable correlation was developed between ΔA and αF6P concentration in the range of αF6P concentration from 0.5 µM to 10 µM | 206 | 1.9 |  |
| CFP-T7-62D (protein) MTSNRADTRVIVVGGGGTIGSSTALHLVRSGYAPANITVLDTFEIPSAQSAGHDLNKIMGIDLRNKVDLQMSLEARQMWKEDELFQPFFHNTGRMDCEHTPEGIEDLKKQYQALHDAGAGLEKTHAWLDNEDEILSKMPLLQRDQIQGWKAIWSQDGGWLAAAKAINAIGQFLKERGVKFGFGGAGSFKQPLFDDEGTTCIGVETADGTKYYADKVVLAAGAWSPTLVDLEDQCCSKAWVYAHIQLTPEEAAEYKGVPVVYNGEFGFFFEPDEFGVIKVCDEFPGFSRFKEHQPYGAPSPKRISVPRSHAKHPTDTYPDASEVSIKKAIATFLPRFQDKELFNRALCWCTDTADAALLMCEHPKWKNFILATGDSGHSFKILPNVGKYVVELIEGRLPEEMAYQWRWRPGGDALKSRRAAPPKDLADMPGWKHDPKL | 0.018 |  |  |  | 1.62 | 2 times (Present Invention 26/Comparative Example 3) to 1,940 times (Present Invention 25/Comparative Example 2) greater |

Reference: patent US20150118700
